The target of the first experiment is HLA-A*0301 (human).
Details: not given
As to GLSFTDLVR (modifications not checked) [HPV18 E1 223 …], the binding affinity ratio (IC50 of standard peptide / IC50 of test peptide) was found to be 0.0009.

Regarding RFHNIAGHY (modifications not checked) [HPV18 E6 peptide … (position 126, 9 amino acids)], the relative binding ratio (IC50 of standard peptide / IC50 of test peptide) is 0.0005.

On to SMSQWIKYR (modifications not checked) [HPV16 E1 421 …], for which the binding affinity ratio (IC50 of standard peptide / IC50 of test peptide) came out at 0.69.

With DIILECVYCK (modifications not checked) [HPV16 E6 position 32 peptide …], the binding affinity ratio (IC50 of the standard peptide / IC50 of the test peptide) came out at 0.0065.

For the molecule LVRNFKSDK (modifications not checked) [… (HPV18 E1, position 229, 9 amino acids)], the binding affinity ratio (IC50 of standard peptide / IC50 of test peptide) was determined as 0.0005.

Turning to RFHNIAGHYR (modifications not checked) [HPV18 E6 peptide … (position 126, 10 amino acids)], the relative binding ratio (IC50 of standard peptide / IC50 of test peptide) was determined as 0.0023.

Turning to FITFLGALK (modifications not checked) [HPV18 E1 460 …], the binding affinity ratio (IC50 of standard peptide / IC50 of test peptide) was found to be 0.032.

With IILECVYCK (modifications not checked) [… (HPV16 E6, position 33)], the relative binding ratio (IC50 of standard peptide / IC50 of test peptide) (ratio to standard peptide) was 0.0016.

Regarding FLKSNSQAK (modifications not checked) [HPV33 E1 385 peptide … (SEQ ID NO: 35888)], the relative binding ratio (IC50 of standard peptide / IC50 of test peptide) was 0.0013.

In the case of GLSFTDLVR (modifications not checked) [HPV45 E1 peptide … (position 209, 9 amino acids)], the relative binding ratio (IC50 of standard peptide / IC50 of test peptide) was found to be 0.0009.

Turning to VVYRDSIPH (modifications not checked) [HPV18 E6 peptide … (position 54, 9 amino acids)], the relative binding ratio (IC50 of standard peptide / IC50 of test peptide) turned out to be 0.12.

As to FLKSNSQAK (modifications not checked) [HPV31 E1 372 … (A03 motif peptide)], the relative binding ratio (IC50 of standard peptide / IC50 of test peptide) (ratio to standard peptide) amounted to 0.0013.

As for ALLRYKCGK (modifications not checked) [HPV45 E1 270 … (SEQ ID NO: 37205)], the relative binding ratio (IC50 of standard peptide / IC50 of test peptide) is 0.09.

SVAALYWYR (modifications not checked) [HPV18 E1 322-330 peptide …]: the binding affinity ratio relative to standard peptide (IC50 standard / IC50 test) came to 2.9.

Turning to NSNAAAFLK (modifications not checked) [… (HPV18 E1, position 393, 9 amino acids)], the binding affinity ratio (IC50 of standard peptide / IC50 of test peptide) was 0.0057.

On to DCATMCRHYK (modifications not checked) [HPV16 E1 peptide … (position 404, 10 amino acids)], for which the relative binding ratio (IC50 of standard peptide / IC50 of test peptide) (ratio to standard peptide) was 0.0044.

LLIRCINCQK (modifications not checked) [… (HPV16 E6, position 106)]: the relative binding ratio (IC50 of standard peptide / IC50 of test peptide) (ratio to standard peptide) is 0.021.

As to TTLEQQYNK (modifications not checked) [… (HPV16 E6, position 93)], the relative binding ratio (IC50 of standard peptide / IC50 of test peptide) (ratio to standard peptide) is 0.01.

As for QMNMSQWIR (modifications not checked) [HPV18 E1 426-434 peptide …], the binding affinity ratio relative to standard peptide (IC50 standard / IC50 test) was found to be 0.0011.

As to LIRCINCQK (modifications not checked) [… (HPV16 E6, position 107)], the relative binding ratio (IC50 of standard peptide / IC50 of test peptide) (ratio to standard peptide) came to 0.0025.

Take MLIQPPKLR (modifications not checked) [HPV31 E1 peptide … (position 285, 9 amino acids)]: the relative binding ratio (IC50 of standard peptide / IC50 of test peptide) (ratio to standard peptide) stood at 0.0005.

Consider CTELQTTIH (modifications not checked) [HPV16 E6 position 23 peptide …], for which the binding affinity ratio (IC50 of the standard peptide / IC50 of the test peptide) is 0.0002.

As to KFYSKISEYR (modifications not checked), the relative binding ratio (IC50 of standard peptide / IC50 of test peptide) (ratio to standard peptide) stood at 0.0067.

For NSNAAAFLK (modifications not checked) [HPV33 E1 379 peptide … (SEQ ID NO: 36047)], the relative binding ratio (IC50 of standard peptide / IC50 of test peptide) was determined as 0.0057.

GTTLEQQYNK (modifications not checked) [HPV16 E6 position 92 peptide …]: the binding affinity ratio (IC50 of the standard peptide / IC50 of the test peptide) came out at 0.0002.

Turning to CATMCKHYR (modifications not checked) [HPV18 E1 peptide … (position 412, 9 amino acids)], the binding affinity ratio (IC50 of standard peptide / IC50 of test peptide) stood at 0.0012.

In the case of VFEFAFKDLF (modifications not checked) [HPV18 E6 peptide … (position 44, 10 amino acids)], the relative binding ratio (IC50 of standard peptide / IC50 of test peptide) was 0.0001.

Consider IAQLKDLLK (modifications not checked) [HPV18 E1 198 …], for which the binding affinity ratio (IC50 of standard peptide / IC50 of test peptide) amounted to 0.0003.

NMSQWIRFR (modifications not checked) [… (HPV18 E1, position 428, 9 amino acids)]: the binding affinity ratio (IC50 of standard peptide / IC50 of test peptide) worked out at 0.054.

For the molecule MLIQPPKLR (modifications not checked) [… (HPV18 E1, position 312, 9 amino acids)], the binding affinity ratio (IC50 of standard peptide / IC50 of test peptide) came out at 0.0005.

As for SVAALYWYR (modifications not checked) [HPV45 E1 308 peptide … (SEQ ID NO: 37559)], the relative binding ratio (IC50 of standard peptide / IC50 of test peptide) was determined as 2.9.

Turning to ALLRYKCGK (modifications not checked) [HPV18 E1 peptide … (position 284, 9 amino acids)], the binding affinity ratio (IC50 of standard peptide / IC50 of test peptide) came to 0.09.

Consider KISEYRHYCY (modifications not checked) [… (HPV16 E6, position 79)], for which the relative binding ratio (IC50 of standard peptide / IC50 of test peptide) (ratio to standard peptide) was determined as 0.0043.

Take HDIILECVY (modifications not checked) [… (HPV16 E6, position 31)]: the relative binding ratio (IC50 of standard peptide / IC50 of test peptide) (ratio to standard peptide) worked out at 0.0002.

For the molecule TAAALYWYK (modifications not checked) [HPV16 E1 315 …], the binding affinity ratio (IC50 of standard peptide / IC50 of test peptide) amounted to 0.78.

As for CVYCKQQLLR (modifications not checked) [HPV16 E6 position 37 peptide …], the binding affinity ratio (IC50 of the standard peptide / IC50 of the test peptide) was determined as 0.0001.

Regarding TGLYNLLIR (modifications not checked) [HPV18 E6 peptide … (position 96, 9 amino acids)], the relative binding ratio (IC50 of standard peptide / IC50 of test peptide) turned out to be 0.0005.

With NSNAAAFLK (modifications not checked) [HPV45 E1 peptide … (position 379, 9 amino acids)], the relative binding ratio (IC50 of standard peptide / IC50 of test peptide) amounted to 0.0057.

LVRNFKSDK (modifications not checked) [HPV45 E1 215-223 peptide … (SEQ ID NO: 37448)]: the relative binding ratio (IC50 of the standard peptide / IC50 of the test peptide) was found to be 0.0005.

The experiment is the same for the next values; noted with them: remark: other sources report otherwise.
As for KFYSKISEY (modifications not checked), the relative binding ratio (IC50 of standard peptide / IC50 of test peptide) (ratio to standard peptide) turned out to be 0.0015.

The next experiment addresses HLA-A*1101 (human).
Details: not given
As for GLSFTDLVR (modifications not checked) [HPV45 E1 209 … (SEQ ID NO: 43622)], the relative binding ratio (IC50 of standard peptide / IC50 of test peptide) was found to be 0.0025.

Take CTELQTTIH (modifications not checked) [… (HPV16 E6, position 23, 9 amino acids)]: the binding affinity ratio (IC50 of standard peptide / IC50 of test peptide) (ratio to standard peptide) came out at 0.0001.

In the case of DIILECVYCK (modifications not checked) [… (HPV16 E6, position 32, 10 amino acids)], the binding affinity ratio (IC50 of standard peptide / IC50 of test peptide) (ratio to standard peptide) is 0.021.

With ATMCRHYKR (modifications not checked) [HPV16 E1 406 …], the relative binding ratio (IC50 of standard peptide / IC50 of test peptide) was determined as 1.5.

For NSNASAFLK (modifications not checked) [HPV16 E1 386 …], the binding affinity ratio (IC50 of standard peptide / IC50 of test peptide) (ratio to standard peptide) was determined as 0.011.

On to NSNAAAFLK (modifications not checked) [HPV33 E1 379 peptide … (A11 motif peptide, 9 amino acids)], for which the relative binding ratio (IC50 of standard peptide / IC50 of test peptide) turned out to be 0.37.

SMSQWIKYR (modifications not checked) [… (HPV16 E1, position 421, 9 amino acids)]: the binding affinity ratio (IC50 of the standard peptide / IC50 of the test peptide) was found to be 0.028.

As for TAAALYWYK (modifications not checked) [… (HPV16 E1, position 315, 9 amino acids)], the binding affinity ratio (IC50 of the standard peptide / IC50 of the test peptide) was found to be 20.

On to DCATMCRHY (modifications not checked) [HPV16 E1 404 …], for which the relative binding ratio (IC50 of standard peptide / IC50 of test peptide) amounted to 0.0001.

As for QMSMSQWIK (modifications not checked) [… (HPV16 E1, position 419, 9 amino acids)], the binding affinity ratio (IC50 of the standard peptide / IC50 of the test peptide) came to 0.026.

Regarding CATMCRHYK (modifications not checked) [HPV16 E1 405 …], the relative binding ratio (IC50 of standard peptide / IC50 of test peptide) was found to be 0.0098.

In the case of FMSFLTALK (modifications not checked) [HPV16 E1 453 …], the relative binding ratio (IC50 of standard peptide / IC50 of test peptide) is 0.21.

For EVYDFAFR (modifications not checked) [EVYDFAFR (HPV16 E6, position 48, 8 amino acids)], the binding affinity ratio (IC50 of standard peptide / IC50 of test peptide) (ratio to standard peptide) was determined as 0.0025.

Regarding CVYCKQQLLR (modifications not checked) [… (HPV16 E6, position 37, 10 amino acids)], the binding affinity ratio (IC50 of standard peptide / IC50 of test peptide) (ratio to standard peptide) was 0.0005.

MLIQPPKLR (modifications not checked) [HPV31 E1 285 … (SEQ ID NO: 41814)]: the relative binding ratio (IC50 of standard peptide / IC50 of test peptide) was 0.0014.

Consider ALFTAQEAK (modifications not checked) [HPV16 E1 69 …], for which the relative binding ratio (IC50 of standard peptide / IC50 of test peptide) amounted to 0.4.

Turning to LVRNFKSDK (modifications not checked) [HPV45 E1 215 peptide … (SEQ ID NO: 43696)], the relative binding ratio (IC50 of standard peptide / IC50 of test peptide) is 0.0002.

Staying with this experiment, now noted: scale: ratio.
For NSNAAAFLK (modifications not checked) [HPV45 E1 379 peptide … (SEQ ID NO: 43719)], the binding affinity ratio relative to standard peptide (A*1101) was found to be 0.37.

As to SVAALYWYR (modifications not checked) [HPV45 E1 308 peptide … (SEQ ID NO: 43764)], the binding affinity ratio relative to standard peptide (A*1101) was 8.8.

For the origin of these results see patent publication US7026443.
